Assay results as given in patent publication US20210292396A1 (INTERNATIONAL AIDS VACCINE INITIATIVE, published 2021).

B1: PGT-121 (antibody, V domains shown)
VH: QMQLQESGPGLVKPSETLSLTCSVSGASISDSYWSWIRRSPGKGLEWIGYVHKSGDTNYSPSLKSRVNLSLDTSKNQVSLSLVAATAADSGKYYCARTLHGRRIYGIVAFNEWFTYFYMDVWGNGTQVTVSS
VL: SDISVAPGETARISCGEKSLGSRAVQWYQHRAGQAPSLIIYNNQDRPSGIPERFSGSPDSPFGTTATLTITSVEAGDEADYYCHIWDSRVPTKWVFGGGTTLTVLG
B2: ePGT121.15.H1.L1 (antibody, V domains shown)
VH: QMQLQESGPGLVKPGETLSLTCSVSGASISSSYWSWLRETPGKGLEWIGYTHHSGDTNYAPSLKSRVHLGLHPSKNQVSLSLTSVTAADTAVYYCARTLHGRRIYGVVAFNEWFTYFYWEVWGNGTQVTVSS
VL: SDISVAPGETVRISCGGESIGSRAVQWYQHRAGQAPKLIIYNNQDRPPGIPERFSGSPDIDFGTTATLTITNVEAGDEATYYCHIWDSRRPTNWVFGGGTTLTVL
B3: ePGT121.15.H6.L1 (antibody, V domains shown)
VH: QMQLQESGPGLVKPGETLSLTCSVSGASISSSYWSWLRETPGKGLEWIGYTHHSGDTNYAPSLKSRVHLGLHPSKNQVSLSLTSVTAADTAVYYCARTLHGRRIYGVVAFNEFFTYFYWEVWGKGTQVTVSS
VL: SDISVAPGETVRISCGGESIGSRAVQWYQHRAGQAPKLIIYNNQDRPPGIPERFSGSPDIDFGTTATLTITNVEAGDEATYYCHIWDSRRPTNWVFGGGTTLTVL

Assays:
[1] = molecular target: gp120 (isolate not stated; FIG. 19) (HIV)
[2] = molecular target: HIV Env of isolate Ce704809221_1B3 (HIV); experiment: cell-based or functional assay
HIV Env of isolate CNE19 = HIV Env of isolate CNE19 (HIV); experiment: cell-based or functional assay
HIV Env of isolate CNE17 = HIV Env of isolate CNE17 (HIV); experiment: cell-based or functional assay
[3] = molecular target: HIV Env of isolate X1193_c1 (HIV); experiment: cell-based or functional assay
HIV Env of isolate CNE5 = HIV Env of isolate CNE5 (HIV); experiment: cell-based or functional assay

Binder | EC50 (read off the curve) [1] | neutralization IC50 [2] | neutralization IC50 (HIV Env of isolate CNE19) | neutralization IC50 (HIV Env of isolate CNE17) | neutralization IC50 [3] | neutralization (Table 6 value) (HIV Env of isolate CNE5)
B1 | ~0.6 µg/mL | 0.025 µg/mL | 0.008 µg/mL | 7.6 µg/mL |  | 
B2 |  |  |  | 0.0037 µg/mL | 0.0001 µg/mL | 
B3 |  |  |  |  |  | 2.72
